According to US20230242902A1, “A HIGHLY ERROR-PRONE […] R[…] FOR TARGETED CONTINUOUS EVOLUTION IN VIVO” (The Regents of the University of California, priority 2017, published 2023):
Substitutions are numbered along the chain they refer to. Names may count otherwise.

Tested on: p1
Test: p1 copy number by p1-encoded mKate2 fluorescence
Type: cell-based, S. cerevisiae
Conditions: OR-Y24, measured in triplicate
Procedure: A calibration curve was established to correlate p1 copy number, determined via quantitative PCR (qPCR), with fluorescence of p1-encoded mKate2 (Table 1). Five TP-DNAP1 variants representing a wide range of copy numbers were transformed into ORY24 and passaged until w.t. p1 was displaced. The five OR-Y24 strains were grown to saturation, diluted 1:10,000 to mimic p1 fluctuation tests, and grown in triplicate 100 μL cultures and duplicate 40 mL cultures. 100 μL saturated cultures were subject to fluorescence measurement of mKate2 (ex/em=561 nm/620 nm, bandwidth=15 nm) on a flow cytometer (Invitrogen Attune NxT). Whole-cell DNA extracts were prepared from 40 mL cultures and used as templates for qPCR measurement of p1-encoded leu2 (Q180*), as described previously (Ravikumar et al., 2014). p1-encoded LEU2 was PCR amplified with qPCR-Leu2F and qPCR Leu2R; and genomic LEU3 was PCR amplified with qPCR-Leu3F and qPCR-Leu3R using SyBR Green (Fisher Scientific) master mix.
To assay p1 copy number for large-scale p1 fluctuation tests, additional replicates of OR-Y24 strains were grown from the 1:10,000 dilution in triplicate and saturated cultures were subject to fluorescence measurement via flow cytometry. Fluorescence measurements were converted to copy number with the linear calibration curve.
To assay relative p1 copy number for small-scale p1 fluctuation tests, an additional 200 μL culture of OR-Y24 strains were grown from the 1:10,000 dilution. 200 μL saturated cultures were subject to an OD600 measurement and fluorescence measurement of mKate2 (ex/em=588 nm/633 nm), using a microplate reader (TECAN Infinite M200 PRO). A linear relationship was assumed between p1 copy number and OD600-normalized mKate2 fluorescence. Copy numbers were calculated from normalization to a w.t. TP-DNAP1 control.
For a few large-scale p1 fluctuation tests, p1 copy number was assayed by the method of small scale p1 fluctuation tests (i.e. microplate reader measurement). For these experiments, mutant TP-DNAP1 p1 copy numbers were calculated by normalization to a w.t. TP-DNAP1 control. The copy number of this control was assumed to be the average w.t. TP-DNAP1 copy number from all large-scale p1 fluctuation tests that used flow cytometry measurements.
TP-DNAP1 plasmids were isolated from these strains and subject to Sanger sequencing. 210 unique variants were identified and the corresponding plasmids were re-transformed into OR-Y24. Transformed strains were passaged in SC-UH until w.t. p1 was displaced, and subject to p1 copy number measurement in triplicate. Four high copy variants were directly subject to qPCR measurements for validation. To test the suppressor activity of the G410H mutation, which yields increased p1 copy number, this amino acid change was added to several low-activity TP-DNAP1 variants. p1 copy number was similarly assayed for these strains.

B1: F616E: TP-DNAP1 variant (protein)
chain: MDYKDKALNDLRNVYADFDSLPLDFRQILIKDRATLLQKEDVEKKILERQEDAKKYAEYLKQSEIPERISLPNIKRHKGVSISFEETSEDMVLEPRPFIFDGLNIRCFRRETIFSLKNKILNMVKESSSFKNVSRQSVSFMYFKIFNKGKVIASTKSVNIYEDKIDERLEDLCNNFDDVLKKIIDVTYGYESLFVSETYSYVIFYAKSIYFPQPRCVNNWGNNIPNILTFDSFKLFTANKNNVSCIKQCSRFLWQKDFNTLEEMIEYKNGNICIVTPQLHINDVRDIKSFNDIRLYSESPIKTFSVIDNTITYLFYFKEHLGVIFNITKSRHDRRVTKFSPLSKFSDVKNITVCFDIESYFDPEKESNQVNIPFICCASIIYNKVIGNIVDFEGRDCVAQMIEYVVDICGELNISSVELIAHNGGGYDFHYILSSMYNPAAIKNILIRNNSFISFNFAHDGVKFSVKDSYSFLLCSLANASKAFLNEETFKKTDFPHHDLKTADDLYKVYKEWSSVNTEINHVVEKEKLLITSEHIVNFTKNDKSKTLIEWSKDYCRNDVLVLSKVWLEFKNAVEDIFNCELVDQTMTLAGLSYKLFQANMPFDVELRHPNKEDYENMREALIGGRCISVNGIYKDVLCLDVKSLYPASMAFYDQPYGSFKRVSSRPKDELGIYYVRVTPNRNNKSNFFPIRSHNKITYNNFEESTYIAWYTNVDIDIGLSEGHNIEYIPFDSYGNIGYSWSKKGKIFEKYIKDVLYKLKIKYEKQNNKVKRNVIKIIMNSLWGKFAQKWVNFEYFIKSEDDIDFESEEAYKIWDTDFMLIKKIKESTYSSKPIQNGVFTLSWARYHMKSIWDAGAKEGAECIYSDTDSIFVHKEHFKKNAKFMLNGLKVPIIGSEVGQLELECEFDKLLCAGKKQYMGFYTYFQDGKPCIKEKKRFKGIPSNYIIPELYAHLLSGADKEAKIQFLKFRREWGSVKGYIENKTVKAT
Mean fold-increase over w.t. (p1 copy number): 2.2 fold

B2: N291W: TP-DNAP1 variant (protein)
chain: B1 chain with N291W, E616F
Mean fold-increase over w.t. (p1 copy number): 2.26 fold

B3: E620R: TP-DNAP1 variant (protein)
chain: B1 chain with E616F, E620R
Mean fold-increase over w.t. (p1 copy number): 2.29 fold

B4: R662A: TP-DNAP1 variant (protein)
chain: B1 chain with E616F, R662A
Mean fold-increase over w.t. (p1 copy number): 1.75 fold

B5: R662C: TP-DNAP1 variant (protein)
chain: B1 chain with E616F, R662C
Mean fold-increase over w.t. (p1 copy number): 1.7 fold

B6: D669G, T698M: TP-DNAP1 variant (protein)
chain: B1 chain with E616F, D669G, T698M
Mean fold-increase over w.t. (p1 copy number): 1.65 fold

B7: E670M, S693G: TP-DNAP1 variant (protein)
chain: B1 chain with E616F, E670M, S693G
Mean fold-increase over w.t. (p1 copy number): 1.55 fold

B8: I673V, E703D: TP-DNAP1 variant (protein)
chain: B1 chain with E616F, I673V, E703D
Mean fold-increase over w.t. (p1 copy number): 1.88 fold

B9: Y675H: TP-DNAP1 variant (protein)
chain: B1 chain with E616F, Y675H
Mean fold-increase over w.t. (p1 copy number): 2.14 fold

B10: Y675L: TP-DNAP1 variant (protein)
chain: B1 chain with E616F, Y675L
Mean fold-increase over w.t. (p1 copy number): 1.96 fold

B11: R677Q: TP-DNAP1 variant (protein)
chain: B1 chain with E616F, R677Q
Mean fold-increase over w.t. (p1 copy number): 1.84 fold

B12: R677L: TP-DNAP1 variant (protein)
chain: B1 chain with E616F, R677L
Mean fold-increase over w.t. (p1 copy number): 1.68 fold

B13: L295Q: TP-DNAP1 variant (protein)
chain: B1 chain with L295Q, E616F
Mean fold-increase over w.t. (p1 copy number): 2.48 fold

B14: R677M: TP-DNAP1 variant (protein)
chain: B1 chain with E616F, R677M
Mean fold-increase over w.t. (p1 copy number): 1.97 fold

B15: R677S: TP-DNAP1 variant (protein)
chain: B1 chain with E616F, R677S
Mean fold-increase over w.t. (p1 copy number): 1.87 fold

B16: T679A: TP-DNAP1 variant (protein)
chain: B1 chain with E616F, T679A
Mean fold-increase over w.t. (p1 copy number): 1.82 fold

B17: T679R: TP-DNAP1 variant (protein)
chain: B1 chain with E616F, T679R
Mean fold-increase over w.t. (p1 copy number): 1.73 fold

B18: T679E: TP-DNAP1 variant (protein)
chain: B1 chain with E616F, T679E
Mean fold-increase over w.t. (p1 copy number): 1.7 fold

B19: T679Q: TP-DNAP1 variant (protein)
chain: B1 chain with E616F, T679Q
Mean fold-increase over w.t. (p1 copy number): 1.71 fold

B20: N681Q, R692I: TP-DNAP1 variant (protein)
chain: B1 chain with E616F, N681Q, R692I
Mean fold-increase over w.t. (p1 copy number): 1.74 fold

B21: N681F: TP-DNAP1 variant (protein)
chain: B1 chain with E616F, N681F
Mean fold-increase over w.t. (p1 copy number): 1.75 fold

B22: R682D: TP-DNAP1 variant (protein)
chain: B1 chain with E616F, R682D
Mean fold-increase over w.t. (p1 copy number): 1.74 fold

B23: R682P: TP-DNAP1 variant (protein)
chain: B1 chain with E616F, R682P
Mean fold-increase over w.t. (p1 copy number): 1.75 fold

B24: Y296K: TP-DNAP1 variant (protein)
chain: B1 chain with Y296K, E616F
Mean fold-increase over w.t. (p1 copy number): 2.28 fold

B25: N683A: TP-DNAP1 variant (protein)
chain: B1 chain with E616F, N683A
Mean fold-increase over w.t. (p1 copy number): 1.93 fold

B26: N683H: TP-DNAP1 variant (protein)
chain: B1 chain with E616F, N683H
Mean fold-increase over w.t. (p1 copy number): 1.68 fold

B27: N683T: TP-DNAP1 variant (protein)
chain: B1 chain with E616F, N683T
Mean fold-increase over w.t. (p1 copy number): 1.57 fold

B28: N684D: TP-DNAP1 variant (protein)
chain: B1 chain with E616F, N684D
Mean fold-increase over w.t. (p1 copy number): 1.54 fold

B29: N687G: TP-DNAP1 variant (protein)
chain: B1 chain with E616F, N687G
Mean fold-increase over w.t. (p1 copy number): 1.65 fold

B30: R692C: TP-DNAP1 variant (protein)
chain: B1 chain with E616F, R692C
Mean fold-increase over w.t. (p1 copy number): 1.69 fold

B31: R692I: TP-DNAP1 variant (protein)
chain: B1 chain with E616F, R692I
Mean fold-increase over w.t. (p1 copy number): 1.99 fold
